Measurements taken from patent US20100297734, “Fusion Tag Comprising an Affinity Tag and an EF-Hand Motif Containing Polypeptide and Methods of Use Thereof” (University Health Network, published 2010).

Target: p53(1-360) (Homo sapiens, UniProt P04637 P04637:1-360)
Test: EMSA; 0.10 nM DNA, 12 uM p53(1-360), PBS, 25 C, 2 ug poly(dI-dC) competitor, 1 h; 6% gel in TBM
Details: tags: HiCaM tag (His6-calmodulin) removed by thrombin; expressed in E. coli BL21(DE3)Star; chain copies: 4 inferred; label: 32P
Protocol: Functional Assays of purified, untagged constructs—The excitation and emission spectra (excited at 488 nm) of eGFP were recorded from 300 to 700 nm at 25° C. in a Fluoromax-3 Spectrofluorometer. For p53(1-360), a ³²P-labelled restriction fragment harbouring an icosamer recognition sequence (5′-[…]-3′ (SEQ ID NO:6)) (0.10 nM) was incubated alone, with 50 ng/μL BSA or 12 μM p53(1-360) in PBS at 25° C. with 2 μg poly(dI-dC)˜poly(dl-dC) for 1 hour before separation in a 6% polyacrylamide gel in TBM buffer at 25 V/cm. The gel was then exposed to a phosphor screen for 1 hour and imaged in a Typhoon® Phosphorimager (GE Healthcare). Human p53(1-360) (7 μM) was also crosslinked with 0.125% glutaraldehyde at 25° C. for 12 min. and separated on SDS-PAGE, followed by Coomassie Blue staining (Poon et al. 2007).

p53(1-360), sequence (P04637 1-360, one chain of several): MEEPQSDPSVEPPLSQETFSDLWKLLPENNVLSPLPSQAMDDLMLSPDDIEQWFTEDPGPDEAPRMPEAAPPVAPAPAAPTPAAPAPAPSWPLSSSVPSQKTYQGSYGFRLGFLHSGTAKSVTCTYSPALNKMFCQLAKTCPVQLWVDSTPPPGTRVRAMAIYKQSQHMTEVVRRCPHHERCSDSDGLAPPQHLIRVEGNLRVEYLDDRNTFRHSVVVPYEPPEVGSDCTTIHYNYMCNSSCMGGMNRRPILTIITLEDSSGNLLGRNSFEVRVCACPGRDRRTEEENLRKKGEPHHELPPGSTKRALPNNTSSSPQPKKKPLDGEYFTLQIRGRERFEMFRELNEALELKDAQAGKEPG

B1: p53 icosamer recognition sequence (dsDNA)
DNA 1: AGGCATGTCTAGGCATGTCT
DNA 2: AGACATGCCTAGACATGCCT
B1: binds.
